3 molecules from US20240415889A1 (UNIVERSITY OF PITTSBURGH OF THE COMMONWEALTH SYSTEM OF …, published 2024) can be followed below.

The target in assay [1] is T1, single chain CD94/NKG2C-Fc (human).
T1 construct: also called CD94/NKG2C polypeptide; single chain CD94/NKG2C polypeptide; not shown: Fc
Nature of the assay: indirect ELISA, coated CD94/NKG2C-Fc. The procedure:
(§1) Binding and specificity of Fab or IgG to single chain CD94/NKG2A-Fc or single chain CD94/NKG2C-Fc were analyzed through indirect ELISA. Briefly, Fc-fused proteins were coated on a 96 well plate (Corning, 3690) at 200 ng/well (50 μL volume) in PBS for 2 hours at room temperature. Blocking was carried out with 3% BSA in PBS for overnight at 4° C. Next day, various concentration of Fab or IgG was applied to antigen coated plates and incubated for 1 hour at 25° C. After three times washing, anti-FLAG mouse antibody (M2 clone)-HRP conjugated (Sigma, A8592, 1:3000 dilution) or anti-human kappa goat antibody-HRP conjugated (Invitrogen, A18853, 1:3000 dilution) was applied to detect binding of either Fab or IgG. Same volume of TMB (Thermo, PI34028) was added as a substrate, and then enzymatic reactions were stopped by adding of 2N […].

Assay [2] concerns the target T2, single chain CD94/NKG2A-Fc (CD94/NKG2A-IgG1 fusion polypeptide) (human).
T2 construct: Biotinylated in the panning and BLItz experiments; also called CD94/NKG2A polypeptide; recombinant CD94/NKG2A polypeptide; not shown: human IgG1 Fc
Kind of assay: indirect ELISA, coated CD94/NKG2A-Fc. The procedure: as §1

The target of assay [3] is T2, single chain CD94/NKG2A-Fc …. Kind of assay: BLItz biolayer interferometry.
In assay [4] the target is T3, CD94/NKG2A on the surface of primary human NK cells (human, UniProt Q13241 1-179; P26715 1-233).
T3 construct: Endogenous receptor on primary NK cells enriched from normal human PBMCs; also called intact NKG2A receptor on the surface of NK cell; cell surface NKG2A
T3 sequence (Q13241 whole entry, chain 1 of 2): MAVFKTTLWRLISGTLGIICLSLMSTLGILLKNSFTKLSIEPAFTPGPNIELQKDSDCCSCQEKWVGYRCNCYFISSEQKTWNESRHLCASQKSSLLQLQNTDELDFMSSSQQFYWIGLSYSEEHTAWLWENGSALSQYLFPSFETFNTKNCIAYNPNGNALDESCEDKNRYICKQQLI
T3 sequence (P26715 whole entry, chain 2 of 2): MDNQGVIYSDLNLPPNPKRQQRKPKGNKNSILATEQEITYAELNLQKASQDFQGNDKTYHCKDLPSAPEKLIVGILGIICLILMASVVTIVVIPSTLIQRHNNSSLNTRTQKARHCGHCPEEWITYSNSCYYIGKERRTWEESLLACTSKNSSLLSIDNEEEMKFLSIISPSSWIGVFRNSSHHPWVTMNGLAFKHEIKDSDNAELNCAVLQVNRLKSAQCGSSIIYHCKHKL
Kind of assay: flow cytometry on primary NK cells, 10 nM antibody.
Description: For investigation of NKG2A expression level of NK cells, enriched NK cells were activated with 50 IU/mL of hIL-2 and treated with the indicated antibodies (100 nM) for 24 hours at 37° C. After incubation with antibodies, cells were washed with cold PBS, and then the cell surface NKG2A was detected using a FITC- or PE-conjugated anti-human CD159a (NKG2A) antibody.

T2 sequence (chain, as listed by the source): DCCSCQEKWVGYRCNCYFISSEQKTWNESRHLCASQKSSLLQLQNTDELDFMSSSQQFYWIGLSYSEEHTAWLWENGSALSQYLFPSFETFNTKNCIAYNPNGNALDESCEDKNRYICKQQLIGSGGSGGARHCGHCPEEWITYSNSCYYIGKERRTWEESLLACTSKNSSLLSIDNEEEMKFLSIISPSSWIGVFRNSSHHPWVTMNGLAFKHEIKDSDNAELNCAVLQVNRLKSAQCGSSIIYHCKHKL
T1 sequence (chain, as listed by the source): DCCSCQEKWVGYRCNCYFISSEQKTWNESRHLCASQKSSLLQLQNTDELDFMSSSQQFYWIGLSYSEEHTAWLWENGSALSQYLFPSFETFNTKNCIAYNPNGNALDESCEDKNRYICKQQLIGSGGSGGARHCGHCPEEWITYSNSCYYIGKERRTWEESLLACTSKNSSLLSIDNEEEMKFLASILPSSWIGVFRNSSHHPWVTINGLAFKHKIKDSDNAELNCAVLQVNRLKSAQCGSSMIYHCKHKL

B1: Fab Clone #1 (1B2) (Fab, V domains shown)
VH: QVQLVESGGGLVKPGGSLRLSCAASGFTFSDYYMSWIRQAPGKGLEWVSYISSSGSTIYYADSVKGRFTISRDNAKNSLYLQMNSLRAEDTAVYYCARGFYMDAWGKGTTVTVSS
VL: DIQMTQSPSSLSASVGDRVTITCRASQSISSYLNWYQQKPGKAPKLLIYAASSLQSGVPSRFSGSGSGTDFTLTISSLQPEDFGVYYCQYYGISPPFTFGPGTKVDIKR
notes: Fab from a phage library, expressed in E. coli and purified on Ni-NTA; detected in ELISA with an anti-FLAG antibody
Consider B1, for which, in assay [1], the binding result is “no binding”. The same molecule gave an EC50 in assay [2] of 2.7 nM.

B2: IgG Clone #1 (1B2, IgG1-LALA-PG) (antibody, V domains shown)
VH: QVQLVESGGGLVKPGGSLRLSCAASGFTFSDYYMSWIRQAPGKGLEWVSYISSSGSTIYYADSVKGRFTISRDNAKNSLYLQMNSLRAEDTAVYYCARGFYMDAWGKGTTVTVSS
VL: DIQMTQSPSSLSASVGDRVTITCRASQSISSYLNWYQQKPGKAPKLLIYAASSLQSGVPSRFSGSGSGTDFTLTISSLQPEDFGVYYCQYYGISPPFTFGPGTKVDIKR
notes: Human IgG1 format with L234A, L235A and P329G (LALA-PG / AAG) in the Fc; Light chain detected with an anti-human kappa antibody; also called Clone #1 IgG; 1B2 (IgG Clone #1)
Regarding B2, binding in assay [3] was put at a Kd of 1.1 nM. The binding result in assay [4] is recorded as “binds”.

B3: IgG Clone #2 (1B2-6, IgG1-LALA-PG) (antibody, V domains shown)
VH: EVQLVESGGGLVKPGGSLRLSCAASGFTFSGYYMSWIRQAPGKGLEWLAYISNSGRTIYYADSVKGRFTISRDNSNSSLYLQMNSLRAEDTAVYYCARGFYMDAWGKGTTVTVSS
VL: DIQMTQSPSSLSASVGDRVTITCRASQSISSYLNWYQQKPGKAPKLLIYAASSLQSGVPSRFSGSGSGTDFTLTISSLQPEDFGVYYCQYYGISPPFTFGPGTKVDIKR
notes: Human IgG1 format with L234A, L235A and P329G; also called Clone #2 IgG (anti-NKG2A)
Regarding B3, in assay [1], the binding result is “no binding”. In assay [2], this molecule gave an EC50 of 0.6 nM.
